diamino‑ethyl = ethylenediamine linker to Bodipy FL
Tests used:
Format in all cases: biochemical
[1] = system: human pancreatic α-chymotrypsin; assay: Detection of chymotrypsin activity in whole rat blood or 1×PBS using NCDPS substrate; conditions: 1×PBS or whole rat blood, 1 h incubation, α-chymotrypsin stocks 2, 0.4, 0.08, 0 mg/ml
Experimental: In this experiment 7 μl of 1× phosphate buffered saline (PBS) at pH 7.8 or 7 μl of whole rat blood were mixed with the following: 7 μl of 1 mg/ml Acetyl-N-[…]Bodipy FL (SEQ ID NO:26) in 1×PBS pH 7.8; 0.4 μl of 2 M CaCl2; and 0.5 μl of the following concentrations 2 mg/ml, 0.4 mg/ml, 0.08 mg/ml and 0 mg/ml of human pancreatic α-chymotrypsin. The mixtures were incubated for 1 hour and then 6 μl of sample was loaded into the wells of a 4% high resolution agarose gel. The five wells on the left-hand side were loaded with 1×PBS samples and the five wells on the right right-hand side were loaded with the whole rat blood samples. Electrophoresis was performed for 30 minutes at 80 V and then the gel was imaged using a BioDoc-It® System with a Model M-26 transilluminator (UVP, Upland, Calif.). The upper FIG. 26A show the gel before the electric field was applied and the quenching of fluorescent signal from NCDPS substrate by the blood samples can clearly be seen in the five wells on the […] side. This sensitivity-reducing quenching issue would occur for many of the current types of fluorescent enzyme assays utilizing classical fluorogenic substrates. As a result, these latter methods typically require considerable sample preparation, which is time-consuming and makes the measurements less accurate, in order to recover fluorescent signal.

[2] = target: T1, bovine pancreatic trypsin (Bos taurus, UniProt P00760); assay: Detection of trypsin in human plasma using NCDPS; conditions: un-diluted human plasma, 1 h reaction
T1 construct: from tissue; host or cells: bovine pancreas (lyophilized enzyme)
T1 sequence (P00760 24-246): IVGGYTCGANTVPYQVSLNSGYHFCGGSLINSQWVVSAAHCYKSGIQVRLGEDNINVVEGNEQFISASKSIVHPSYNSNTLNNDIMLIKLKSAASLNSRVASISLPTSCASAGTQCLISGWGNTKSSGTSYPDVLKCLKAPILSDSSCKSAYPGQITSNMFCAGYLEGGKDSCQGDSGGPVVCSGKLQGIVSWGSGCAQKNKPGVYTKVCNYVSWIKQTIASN
Experimental: (§1) In this example a 1 mg/ml (650 μM) stock solution of the peptide substrate was prepared from lyophilized Ac-N-[…]diamino-ethyl-Bodipy FL (MW 1537.4) (SEQ ID NO:29) by dissolving the peptide in 1×PBS at pH 7.8. […] Both proteases were serially diluted in 1 mM HCl in order to obtain the desired concentrations. A solution of 486 μg/ml (316 μM) of the Ac-N-[…]diamino-ethyl-Bodipy FL peptide was prepared in un-diluted human plasma. Aliquots of 14.4 μl of the peptide plasma solution were mixed with 1 μl aliquots of various concentrations of the proteases or 1 ul of 1 mM HCl for the negative control and then allowed to react for one hour. Samples of about 6 μl each containing 3 μg (300 μM) of the substrate with protease concentrations that ranged from 500 nM (lanes 1-2), 100 nM (lanes 3-4), 50 nM (lanes 5-6), 30 nM (lanes 7-8), 20 nM (lanes 9-10) or 0 nM (lanes 11-12) were loaded into the wells of a 4% high resolution agarose gel in 0.5×TBE. […] Gels were then quantified with a Storm 480 gel scanner using ImageQuant v5.2 (Molecular Dynamics, Sunnyvale, Calif.) (fluorescence mode, high sensitivity, 100 μm pixel size, 1000V photomultiplier tube) with a 450 nm excitation filter and a 520 nm long pass emission filter. […]

[3] = target: T2, bovine pancreatic α-chymotrypsin (Bos taurus, UniProt P00766); assay: Detection of α-chymotrypsin in human plasma using NCDPS; conditions: un-diluted human plasma, 1 h reaction
T2 construct: from tissue; host or cells: bovine pancreas (lyophilized enzyme)
Experimental: as §1

[4] = target: T1, bovine pancreatic trypsin; assay: Detection of trypsin in 1×PBS buffer using NCDPS, agarose gel electrophoresis; conditions: 1×PBS pH 7.8, 300 μM substrate, 1 h reaction
Experimental: (§2) In this experiment a 1 mg/ml (650 μM) stock solution of the NCDPS substrate Ac-N-[…]diamino-ethyl-Bodipy FL (SEQ ID NO:29) (MW 1537.4) was prepared by dissolving the peptide in 1× phosphate buffered saline (PBS) at pH 7.8. […] Both proteases were serially diluted in 1 mM HCl in order to obtain the desired concentrations. A solution of 486 μg/ml (316 μM) of the Ac-N-[…]diamino-ethyl-Bodipy FL peptide was prepared in 1×PBS (pH 7.8). Aliquots of 14.4 μl of the […] peptide solution (1×PBS) were mixed with 1 μl aliquots of various concentrations of the proteases or 1 ul of 1 mM HCl for the negative control, and then allowed to react for one hour. 6 μl samples containing 3 μg (300 μM) of the substrate with protease concentrations ranging from 500 nM (lanes 1-2), 100 nM (lanes 3-4), 50 nM (lanes 5-6), 30 nM (lanes 7-8), 20 nM (lanes 9-10) or 0 nM (lanes 11-12) were loaded into the wells of a 4% high resolution agarose gel run in 0.5×TBE. […] Gels were then quantified with a Storm 480 gel scanner using ImageQuant v5.2 (Molecular Dynamics, Sunnyvale, Calif.) (fluorescence mode, high sensitivity, 100 μm pixel size, 1000V photomultiplier tube) with a 450 nm excitation filter and a 520 nm long pass emission filter. […]

[5] = target: T2, bovine pancreatic α-chymotrypsin; assay: Detection of α-chymotrypsin in 1×PBS buffer using NCDPS, agarose gel electrophoresis; conditions: 1×PBS pH 7.8, 300 μM substrate, 1 h reaction
Experimental: as §2

Row | Substance | cleavage products on gel after electrophoresis (FIG. 26B) [1] | detection level by inspection of gel (FIG. 22) [2] | detection level by inspection of gel (FIG. 22) [3] | detection level by inspection of gel (FIG. 20) [4] | detection level by inspection of gel (FIG. 20) [5]
1 | Acetyl-N-Asp-Gly-Asp-Ala-Gly-Tyr-Ala-Gly-Leu-Arg-Gly-Ala-Gly-Bodipy FL (Ac-DGDAGYAGLRGAG-{Bodipy FL}) | appearance of cleavage products in the first three 1×PBS samples and in the blood samples | – | – | – | –
2 | Ac-N-Asp-Gly-Asp-Ala-Gly-Tyr-Ala-Gly-Leu-Arg-Gly-Ala-Gly-diamino-ethyl-Bodipy FL (Ac-DGDAGYAGLRGAG-{diamino‑ethyl-Bodipy FL}) [SEQ ID NO:29, NCDPS substrate for chymotrypsin and trypsin, net charge −1] | – | about 20 nM | about 20 nM | about 30 nM | about 20 nM
